# Assay results published in publication PMC4553094 (Thrombosis research, 2015).
# T1: Human placenta type III collagen (human, UniProt P02461 154-1221, covalently modified with maleimide-PEG3500-NHS for coupling to beads)
# T1 sequence (looked up): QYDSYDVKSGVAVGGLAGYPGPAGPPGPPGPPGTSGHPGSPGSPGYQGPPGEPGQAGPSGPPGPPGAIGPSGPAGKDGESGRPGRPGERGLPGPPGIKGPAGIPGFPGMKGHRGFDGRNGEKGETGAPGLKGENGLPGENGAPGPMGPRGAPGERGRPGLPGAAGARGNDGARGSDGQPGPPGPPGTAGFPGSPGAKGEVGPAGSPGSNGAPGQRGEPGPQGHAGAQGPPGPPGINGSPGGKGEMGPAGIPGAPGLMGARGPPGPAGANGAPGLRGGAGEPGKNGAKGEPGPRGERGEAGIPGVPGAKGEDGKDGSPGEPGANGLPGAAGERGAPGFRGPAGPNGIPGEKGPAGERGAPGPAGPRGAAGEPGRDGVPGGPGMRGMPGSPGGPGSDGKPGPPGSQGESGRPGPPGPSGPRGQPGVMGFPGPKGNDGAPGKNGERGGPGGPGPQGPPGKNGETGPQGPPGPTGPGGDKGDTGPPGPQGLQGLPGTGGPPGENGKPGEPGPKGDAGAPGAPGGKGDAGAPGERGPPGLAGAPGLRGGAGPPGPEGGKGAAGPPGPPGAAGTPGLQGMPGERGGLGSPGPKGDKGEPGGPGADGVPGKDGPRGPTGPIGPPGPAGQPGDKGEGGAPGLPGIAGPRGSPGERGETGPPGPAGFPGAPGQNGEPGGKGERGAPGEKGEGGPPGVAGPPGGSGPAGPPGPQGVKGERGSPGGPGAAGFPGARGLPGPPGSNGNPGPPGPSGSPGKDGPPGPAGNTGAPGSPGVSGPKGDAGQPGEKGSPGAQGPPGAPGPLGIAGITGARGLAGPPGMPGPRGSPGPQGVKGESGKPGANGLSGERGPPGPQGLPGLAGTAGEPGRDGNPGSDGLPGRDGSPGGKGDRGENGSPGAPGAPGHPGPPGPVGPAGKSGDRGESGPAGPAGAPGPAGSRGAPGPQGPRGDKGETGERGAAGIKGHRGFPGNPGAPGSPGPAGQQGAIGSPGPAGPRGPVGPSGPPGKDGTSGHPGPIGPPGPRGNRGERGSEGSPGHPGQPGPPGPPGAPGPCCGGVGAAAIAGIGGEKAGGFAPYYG
# B1: Recombinant wild-type monomeric VWF A3 domain (residues 1687-1874) (domain or fragment)
# chain: SQPLDVILLLDGSSSFPASYFDEMKSFAKAFISKANIGPRLTQVSVLQYGSITTIDVPWNVVPEKAHLLSLVDVMQREGGPSQIGDALGFAVRYLTSEMHGARPGASKAVVILVTDVSVDSVDAAADAARSNRVTVFPIGIGDRYDAAQLRILAGPAGDSNVVKLQRIEDLPTMVTLGNSFLHKLCSG
# Legend:
# [1] = target: Glycoprotein Ib-IX complex captured from platelet lysates (human (endogenous in platelets)) (UniProt P07359); assay: biomembrane force probe
# [2] = target: T1, Human placenta type III collagen; assay: biomembrane force probe
Molecule,bond lifetime at the peak force [1] [s],affinity to collagen relative to that of A1 [2] [times]
Plasma von Willebrand factor (from UniProt P04275 764-2813) (natural protein),3.1,
Recombinant wild-type monomeric VWF 1238-A1 (residues 1238-1471) (from UniProt P04275 1238-1471) (domain or fragment),1.5,
B1,,10
